Data taken from patent publication US20220162268A1 (BOARD OF TRUSTEES OF MICHIGAN STATE UNIVERSITY, published 2022).

Assays:
[1] = target: T1, K28A_HO BMC-H 5815ggsSZ5-HA; test: fluorescence co-localization in E. coli, deconvolved widefield (FIG. 2C)
T1 construct: Self-assembles into higher-order sheets in E. coli; also called K28A 5815-Synthetic Zipper5 construct; K28AHO BMC-H-SZ5
T1 chain: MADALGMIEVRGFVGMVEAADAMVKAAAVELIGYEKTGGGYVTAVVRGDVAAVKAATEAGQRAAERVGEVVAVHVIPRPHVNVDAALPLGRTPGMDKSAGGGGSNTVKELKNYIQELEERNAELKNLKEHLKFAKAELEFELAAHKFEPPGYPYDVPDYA

[2] = target: T1, K28A_HO BMC-H 5815ggsSZ5-HA; test: live-cell fluorescence time course in E. coli
Experimental: E. coli BL21 ArcticExpress (DE3) competent cells (Agilent) were used for cellular expression studies. Competent cells were transformed with constructs containing the gene(s) of interest and plated on LB agar plates with the appropriate antibiotic(s) to provide selection. Individual colonies were picked into 5 mL LB cultures with the appropriate antibiotics(s) and incubated at 30° C., with a rotational stirring of 250 RPM. These overnight cultures were inoculated 1:100 into fresh liquid cultures with conditions dependent upon the experimental plan. For TEM analysis, cells were inoculated in 50 mL LB, grown until ˜OD₆₀₀ 0.8, induced with 100 μM IPTG, and incubated for an additional 6 hours, before 2 mL of the parent culture was fixed overnight at 4° C. Cells used to purify protein were cultured in a similar manner, the whole culture was pelleted, and cell pellets were stored at −20° C. for subsequent protein isolation. Cultures analyzed via light microscopy were inoculated into 1 mL LB or SOB media in culture tubes and incubated the indicated amount of time before imaging. Appropriate inducer(s) (IPTG or aTc) were added as indicated for each experimental design.
The dynamics of scaffold nucleation and maturation was then visualized over time in live cells. […]

[3] = target: T1, K28A_HO BMC-H 5815ggsSZ5-HA; test: fluorescence co-localization in E. coli, 100 µM or 500 µM IPTG (FIG. 2I)
[4] = target: T1, K28A_HO BMC-H 5815ggsSZ5-HA; test: fluorescence microscopy of E. coli co-expressing both, 100 µM or 500 µM IPTG (FIG. 2I)

B1: Synthetic Zipper6 LINKER mNeonGreen StrepII Tag construct (designed binder)
chain: MQKVAQLKNRVAYKLKENAKLENIVARLENDNANLEKDIANLEKDIANLERDVARGSGGGSGGGSMVSKGEEDNMASLPATHELHIFGSINGVDFDMVGQGTGNPNDGYEELNLKSTKGDLQFSPWILVPHIGYGFHQYLPYPDGMSPFQAAMVDGSGYQVHRTMQFEDGASLTVNYRYTYEGSHIKGEAQVKGTGFPADGPVMTNSLTAADWCRSKKTYPNDKTIISTFKWSYTTGNGKRYRSTARTTYTFAKPMAANYLKNQPMYVFRKTELKHSKTELNFKEWQKAFTDVMGMDELYKSAWSHPQFEK
notes: also called SZ6-ggs-mNeonGreen; SZ6-mNeonGreen
B1: binds [1].

B2: STREP-mNeonGreen (other, not shown: small tags and cut ends)
chain: MVSKGEEDNMASLPATHELHIFGSINGVDFDMVGQGTGNPNDGYEELNLKSTKGDLQFSPWILVPHIGYGFHQYLPYPDGMSPFQAAMVDGSGYQVHRTMQFEDGASLTVNYRYTYEGSHIKGEAQVKGTGFPADGPVMTNSLTAADWCRSKKTYPNDKTIISTFKWSYTTGNGKRYRSTARTTYTFAKPMAANYLKNQPMYVFRKTELKHSKTELNFKEWQKAFTDVMGMDELYK
notes: Fluorescent cargo without an SZ6 domain; also called untagged cargo; untagged cargo construct PLacO::mNeonGreen
B2: no binding [2].

B3: Synthetic Zipper6 LINKER mScarlet-I StrepII Tag construct (designed binder)
chain: MQKVAQLKNRVAYKLKENAKLENIVARLENDNANLEKDIANLEKDIANLERDVARGSGGGSGGGSMVSKGEAVIKEFMRFKVHMEGSMNGHEFEIEGEGEGRPYEGTQTAKLKVTKGGPLPFSWDILSPQFMYGSRAFIKHPADIPDYYKQSFPEGFKWERVMNFEDGGAVTVTQDTSLEDGTLIYKVKLRGTNFPPDGPVMQKKTMGWEASTERLYPEDGVLKGDIKMALRLKDGGRYLADFKTTYKAKKPVQMPGAYNVDRKLDITSHNEDYTVVEQYERSEGRHSTGGMDELYKSAWSHPQFEK
notes: also called SZ6-ggs-mScarlet-I; SZ6-mScarlet-I
B3: binds [3].

B4: STREP-mScarlet-I (other)
chain: MVSKGEAVIKEFMRFKVHMEGSMNGHEFEIEGEGEGRPYEGTQTAKLKVTKGGPLPFSWDILSPQFMYGSRAFIKHPADIPDYYKQSFPEGFKWERVMNFEDGGAVTVTQDTSLEDGTLIYKVKLRGTNFPPDGPVMQKKTMGWEASTERLYPEDGVLKGDIKMALRLKDGGRYLADFKTTYKAKKPVQMPGAYNVDRKLDITSHNEDYTVVEQYERSEGRHSTGGMDELYK
notes: Fluorescent cargo without an SZ6 domain; also called untagged cargo
B4: no binding [4].
